± gives the uncertainty stated by the source.
assay: amyloid nucleation score (Sup35N fusion, yeast selection) (log enrichment); library NNK3; higher = more nucleation; inactive = no reads after selection
Outline: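 Nucleation score is defined as the DiMSum log enrichment of output over input reads, with centring on the mode score of non-aggregating sequences. A minimum of 100 input reads was required for each sequence. Reads came from Illumina sequencing of plasmid inserts from psi-negative yeast expressing Sup35N fused to peptides of 20 random codons, induced with 100 μM copper sulfate for 24 hours and grown 7 days at 30°C on medium lacking adenine and uracil.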

Substance	amyloid nucleation score
ISTKDTLM	inactive
ISVFIRTCMWKFVVVPRGYW	inactive
ISVVGILLGLSSFPVYSVSW	inactive
ISYSAMVNCPDEIWVRYSSW	inactive
ITALDWY	inactive
ITAVVVSDMYH	inactive
ITGPTSVYE	inactive
ITRTYNYLYTCINTFRQPSV	0.045 ± 0.45
ITRWHGSLHSDYGIGICFSI	inactive
ITRWLIVLAVMYYSILSLSV	inactive
IVANGCRWQVRVPWGLTSKW	inactive
IVCRGYSSKWYSVSEYKDNV	0.016 ± 0.37
IVCRISTTCQWCRINVSGGS	1.12 ± 0.1
IVDASGQRAMGSDFIHVLHR	inactive
IVFFYAEIGYSPSQCRRRVA	inactive
IVFRLANKPRRANRC	inactive
IVGDRSLRSDEFSCC	inactive
IVGLSHDAINTYLWVVVNAP	inactive
IVIRTSSDTNVRAAVQLRMN	inactive
IVKKHVDFQQTVN	inactive
IVKRFHYYMSVRKLMSKFGL	inactive
IVLCMVFCWSRPWEVIIFKV	inactive
IVLIKDYYSIRFDSEGIVDI	inactive

Substance	amyloid nucleation score
IVLIKSILDANEEGT	inactive
IVMRPSIGMILYSRSPFVYS	inactive
IVMVIAAGWFN	0.633 ± 0.2
IVRIVK	inactive
IVVFYAFEVFVGEGGKTRVP	inactive
IVWEGSSPLVLIKHGICKQR	inactive
IVYGKHAWWIRLGSIHVFYY	inactive
IVYPFSGLMPDGAFRKEFDA	inactive
IVYRVSVFSWLVMDPDDK	inactive
IVYTMCDFWSSMDLVDNLQG	inactive
IVYTSSLSAMCMRGRNGAVR	inactive
IWDGSADKFVDPHRACRLWR	inactive
IWICYWSCRIKAYRLSNFFD	inactive
IWILRKVVLRVVWMRYLGVK	inactive
IWIRAVDLGLDGLPSFFSIS	inactive
IWKAWDNSSMGCPS	-0.032 ± 0.33
IWLRVITLERLEPQM	inactive
IWRGSKDYKSPVRHFSQAN	inactive
IWSLDNARNYSIVRSVWLG	inactive
IYGVSESVYWIVWANIGVLQ	inactive
IYGWWLGTTYM	0.656 ± 0.21
IYHYIYSASMKLNTHGELMP	inactive
IYIHQDPVFKGCYWLRRGVE	inactive

Substance	amyloid nucleation score
IYLMISWQWGSGLQPNIRPA	inactive
IYNSAFIGFSRLKVCVYALF	0.471 ± 0.17
IYPLMKTELGRTMILIDLLE	inactive
IYRLFSARDDIVKDWRR	inactive
IYSVGYRSS	inactive
IYWLSTYRCIKSYSMST	inactive
KAPRCGVKAMLKGVMGFRRR	0.531 ± 0.24
KAREVGIQWRKWSIIAWNNW	1.45 ± 0.095
KCAEL	inactive
KCCYRMVVDTV	inactive
KCEFN	inactive
KCGFLTSPHMFSLK	inactive
KCGFYRTVFCSRVCVRS	inactive
KCGRSR	inactive
KCVWWCTNWLNVKWVYSTRC	inactive
KCYNKVWELMLAYG	inactive
KDHLHRRYMGRTAVLREIDI	inactive
KDSCCVGSRNAHFECYFEVA	inactive
KEDKPESTDYNVNT	inactive
KEVTSLVLIVFT	0.58 ± 0.17
KFADQALTHSQYATFLTGLY	inactive
KFCASSCWMNYSVFGMYLSI	inactive
KFCVVSKTLFNFLTFWFEHG	inactive

Substance	amyloid nucleation score
KFIVVGYLGTIPTHPVGVPY	0.6 ± 0.25
KFLITETGSEL	inactive
KFMCSNAF	inactive
KFPFSGPSRMTRRVMQRALL	inactive
KFSLCSVACFNK	2.88 ± 0.052
KFSMMYLRYFVWFLRLIMAS	inactive
KFSYNVQLRVAWYVSGGSGT	inactive
KFYDHTLCFVDWRDFSW	inactive
KGFTDWFWCFTPVVEWKSIT	inactive
KGKITCM	inactive
KGRFVLLDTTAQLNI	inactive
KGVGFPVCTSNG	inactive
KGVGHSTLTIIFLLSALRFS	1.02 ± 0.14
KGVRCANNVLRKQRLENNNF	inactive
KGYGCFTGMYSENARMMVIS	0.136 ± 0.66
KICGNRPGVSRYLVGLDVMC	inactive
KIHRAGDYWVMSNR	inactive
KIIRMF	inactive
KIMCGGTVSERETRTLHQSG	inactive
KINLLSCLPVLRYYWISSLA	inactive
KINVD	inactive
KIWNCVYVGWNIVVNNIKGL	2.66 ± 0.076
KKFLAPCSRCWPKMDITRLN	inactive

Substance	amyloid nucleation score
KKPPHRLTVLMTGIAM	inactive
KKSHCRTIYKSLV	inactive
KLCTVINRLYLHRGGNSNSQ	inactive
KLDSLPEYFSATLWLDMSVF	inactive
KLEMYVARSCDCAYDRCWGR	inactive
KLKVVVIKNICFG	1.82 ± 0.083
KLLSMGVSTKRRT	inactive
KLLSTRRCFRCLLGQWSLFM	1.17 ± 0.14
KLNGFPWRPAWHEVMAGWVW	inactive
KLYYIVRCEFCRDCKMAWGN	1.29 ± 0.094
KMDLFVRIVSCLVNGCQTTG	inactive
KMILRFFSI	1.52 ± 0.063
KNFQPKTS	0.082 ± 0.45
KNFSFKATDWIVKSSVARCR	inactive
KNIPFYIGWVEVSTAGARYP	inactive
KNTSIK	inactive
KNYCGKNEYVLCTD	inactive
KPPGLNRHYTSCDMLSWALN	inactive
KPSSFNDAIR	inactive
KPTWQKEFVR	0.969 ± 0.19
KPVYYQCLENISSFEC	inactive
KQCGTIG	inactive
KQGVILTNRVYAFALGSSTH	inactive

Substance	amyloid nucleation score
KQLHLMLIVQIVATKTVNAP	inactive
KQVKMGVA	inactive
KREECILWLPLGNLLYNVLR	inactive
KRLLVKVLLDVIGAYRDSSC	inactive
KRMWKGE	inactive
KRVDYCFMIGVMTCVNHPTE	inactive
KRVLEGRFITVSM	inactive
KSDVS	inactive
KSLSIRFYWVSPWTVVWDSR	0.872 ± 0.11
KSNVLP	inactive
KSSTNMEMRMSHLGLLIGEV	inactive
KSTRF	inactive
KSVKARYSDSSMW	inactive
KSYFANSG	inactive
KSYLVFDPWGPAKSLFYTDM	inactive
KSYMYILKWAVLVLCSRSGL	inactive
KSYSAWSTVRDSKPTVLGN	inactive
KSYWCNVGAIENT	inactive
KTKGICSSMLVFC	inactive
KTLIVVAVSFIWL	0.887 ± 0.19
KTLVRNMDNKPCRFSLTSNF	inactive
KTNRFHIDFAIDTPRLSLFL	inactive
KTYEETSDTYYFQVLFTNPI	inactive

Substance	amyloid nucleation score
KVCVIVVLLHTTRCQKFYQY	inactive
KVNTLRVEDIWTSQAFVCMV	inactive
KVRQARGILASEGIGQETVG	1.33 ± 0.14
KVSWMFYRCSDNNN	1.66 ± 0.074
KVVMGVGLQRDESGIEGQLG	inactive
KVYKLGVSRRSVKAT	inactive
KVYSIYTNKNFGCFDYNWCI	inactive
KWASFLFYFDVMSYSARELN	-0.32 ± 0.84
KWDSKFRYLADGHNQLPC	0.605 ± 0.38
KYGENDLRFENITYLFGV	inactive
KYNHIYVYKSIRCVQGVLDG	inactive
KYNPTMSNYSGLLWKIGVGT	inactive
KYNWLNKVSTIGTSKGSSIG	inactive
KYTVEVNFLAFLRHIYCTSG	inactive
KYYLALIYSKLRMIVSCFGF	0.033 ± 0.44
LAAEFTFMRPARGYFGNKVG	inactive
LACLIHS	inactive
LACPWLTLIGYVQIRCNFDG	inactive
LADWQMGVPRGLQVMVCTTL	inactive
LAFFTHNIYF	1.97 ± 0.1
LAFVANY	inactive

— the supplement of paper PMC12042874
